Patent publication US20140294819A1 (NVIP, published 2014)
Residue numbers refer to the chain shown, from its start. Each block holds one binder with its values, some of them ahead of it.

Assays:
[1] = biological target: T1, feline CD20 cyclised peptide SEQ ID NO:4 (feline, cyclised by a disulphide bond between the two cysteine residues); experiment: ELISA, purified antibody on cyclic CD20 peptide
T1 construct: also called feline CD20 peptide
T1 peptide: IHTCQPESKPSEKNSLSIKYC
Method: (§1) The purified antibodies shown in FIG. 15 were tested for binding to cyclic CD20 peptides from different species by ELISA as above.

[2] = biological target: T2, human CD20 cyclic (oxidised) peptide SEQ ID NO:3 (human, disulphide bond between the two cysteine residues; biotinylated); experiment: ELISA, purified antibody on cyclic CD20 peptide
T2 construct: also called H20; human CD20 cyclic peptide
T2 peptide: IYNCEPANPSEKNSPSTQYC
Method: as §1

[3] = biological target: T3, murine CD20 cyclic (oxidised) peptide SEQ ID NO:6 (murine, disulphide bond between the two cysteine residues; biotinylated); experiment: ELISA, purified antibody on cyclic CD20 peptide
T3 construct: also called M20; mouse CD20 peptide
T3 peptide: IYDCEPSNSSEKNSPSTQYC
Method: as §1

[4] = biological target: T4, canine CD20 cyclic (oxidised, disulphide-bonded) peptide SEQ ID NO:2 (canine, disulphide bond between the two cysteine residues (corresponding to positions 167 and 183); N-terminal biotin in the streptavidin-plate assays); experiment: ELISA, purified antibody on cyclic CD20 peptide
T4 construct: Chemically synthesised and oxidised; also called C20; caCD20 peptide
T4 peptide: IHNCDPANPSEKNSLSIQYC
Method: as §1

[5] = biological target: T1, feline CD20 cyclised peptide SEQ ID NO:4; experiment: ELISA on cyclised CD20 peptide
[6] = biological target: T2, human CD20 cyclic (oxidised) peptide …; experiment: ELISA on cyclised CD20 peptide
[7] = biological target: T3, murine CD20 cyclic (oxidised) peptide …; experiment: ELISA on cyclised CD20 peptide
[8] = biological target: T1, feline CD20 cyclised peptide SEQ ID NO:4; experiment: ELISA, purified recombinant antibody on cyclic CD20 peptide
Source text: (§2) The RA2 and RF2 variable heavy and light chain sequences (SEQ ID NO:23-26) were rebuilt as IgG2a/kappa antibodies by oligonucleotide-based gene synthesis, cloned into pcDNA3.3 vectors and co-expressed in appropriate pairs in CHO cells. The supernatant expressed antibodies were purified by Protein A chromatography and tested for binding by CD20 peptide ELISA (FIG. 11). Both purified recombinant forms of mouse RA2 and RF2 bound strongly to cyclic canine and feline CD20 peptides, and also to mouse and human CD20 peptides (the binding of RA2 to human CD20 peptide was more pronounced than with the corresponding hybridoma supernatant in FIG. 9).

[9] = biological target: T2, human CD20 cyclic (oxidised) peptide …; experiment: as above
Source text: as §2

[10] = biological target: T3, murine CD20 cyclic (oxidised) peptide …; experiment: as above
Source text: as §2

[11] = biological target: T4, canine CD20 cyclic (oxidised, …); experiment: as above
Source text: as §2

[12] = biological target: T1, feline CD20 cyclised peptide SEQ ID NO:4; experiment: ELISA, hybridoma antibody on cyclic CD20 peptide
Source text: (§3) Using a combination of cyclic human (SEQ ID NO:3) and canine (SEQ ID NO:2) CD20 peptides, monoclonal antibodies that would bind both human and canine peptides were screened for using conventional hybridoma screening of mice previously immunised with the cyclic canine CD20 peptide of FIG. 1, coupled to diphtheria toxoid at the amino terminus as a source of T-cell help. Two antibody hybridomas were selected, RA2 and RF2 and tested for binding to these as well as to murine (SEQ ID NO:6) and feline (SEQ ID NO:4) CD20 peptides. RA2 and RF2 bound strongly to canine CD20 and RF2 bound strongly to human CD20 peptide whereas RA2 binds more weakly. Unexpectedly RA2 and RF2 bound strongly to feline and also murine CD20 peptides.

[13] = biological target: T2, human CD20 cyclic (oxidised) peptide …; experiment: ELISA, hybridoma antibody on cyclic CD20 peptide
Source text: as §3

[14] = biological target: T3, murine CD20 cyclic (oxidised) peptide …; experiment: ELISA, hybridoma antibody on cyclic CD20 peptide
Source text: as §3

[15] = biological target: T4, canine CD20 cyclic (oxidised, …); experiment: ELISA, hybridoma antibody on cyclic CD20 peptide
Source text: as §3

binding result [1]: binds
binding result [2]: binds
binding result [3]: binds
binding result [4]: binds
B1: caninised RA2, HCB isotype (antibody)
heavy: EVQLVQSGGGLVKPTESLTISCVVSGFSLTNYGVHWVRQSPGKGLEWLGVIWSGGTTDYNAAFISRLSISKDNSKSTVFLRMNSLRADDTAIYYCARGPRKFYYYGMDYWGQGTSVTVSSASTTAPSVFPLAPSCGSTSGSTVALACLVSGYFPEPVTVSWNSGSLTSGVHTFPSVLQSSGLYSLSSMVTVPSSRWPSETFTCNVAHPASKTKVDKPVPKRENGRVPRPPDCPKCPAPEMLGGPSVFIFPPKPKDTLLIARTPEVTCVVVDLDPEDPEVQISWFVDGKQMQTAKTQPREEQFNGTYRVVSVLPIGHQDWLKGKQFTCKVNNKALPSPIERTISKARGQAHQPSVYVLPPSREELSKNTVSLTCLIKDFFPPDIDVEWQSNGQQEPESKYRTTPPQLDEDGSYFLYSKLSVDKSRWQRGDTFICAVMHEALHNHYTQESLSHSPGK
light: DIVMTQTPLSLSVSQEEEASISCRSSQSIVHSNGNTYLEWYLQKPGQSPKLLIYKVSNRFSGVPDRFSGSGSGTDFTLKISRVEAGDAGVYYCFQGLHVPLTFGAGTKLELKRNDAQPAVYLFQPSPDQLHTGSASVVCLLNSFYPKDINVKWKVDGVIQDTGIQESVTEQDKDSTYSLSSTLTMSSTEYLSHELYSCEITHKSLPSTLIKSFQRSECQRVD
notes: also called caRA2-B

binding result [1]: binds
binding result [2]: binds
binding result [3]: binds
binding result [4]: binds
B2: chimeric mouse-canine RA2, HCB isotype (antibody)
heavy: QVQLKQSGPGLVPPSQSLSITCTVSGFSLTNYGVHWVRQSPGKGLEWLGVIWSGGTTDYNAAFISRLSISKDNSKSQVFFKMNSLQADDTAIYYCARGPRKFYYYGMDYWGQGTSVTVSSASTTAPSVFPLAPSCGSTSGSTVALACLVSGYFPEPVTVSWNSGSLTSGVHTFPSVLQSSGLYSLSSMVTVPSSRWPSETFTCNVAHPASKTKVDKPVPKRENGRVPRPPDCPKCPAPEMLGGPSVFIFPPKPKDTLLIARTPEVTCVVVDLDPEDPEVQISWFVDGKQMQTAKTQPREEQFNGTYRVVSVLPIGHQDWLKGKQFTCKVNNKALPSPIERTISKARGQAHQPSVYVLPPSREELSKNTVSLTCLIKDFFPPDIDVEWQSNGQQEPESKYRTTPPQLDEDGSYFLYSKLSVDKSRWQRGDTFICAVMHEALHNHYTQESLSHSPGK
light: B1 light with I2V, V3L, S12P, Q15L, E16G, E17D, E18Q, A88L, K108R
notes: also called chiRA2-B; chimeric RA2

binding result [1]: binds
binding result [2]: binds
binding result [3]: binds
binding result [4]: binds
B3: caninised RA2, HCC isotype (antibody)
heavy: EVQLVQSGGGLVKPTESLTISCVVSGFSLTNYGVHWVRQSPGKGLEWLGVIWSGGTTDYNAAFISRLSISKDNSKSTVFLRMNSLRADDTAIYYCARGPRKFYYYGMDYWGQGTSVTVSSASTTAPSVFPLAPSCGSQSGSTVALACLVSGYIPEPVTVSWNSVSLTSGVHTFPSVLQSSGLYSLSSMVTVPSSRWPSETFTCNVAHPATNTKVDKPVAKECECKCNCNNCPCPGCGLLGGPSVFIFPPKPKDILVTARTPTVTCVVVDLDPENPEVQISWFVDSKQVQTANTQPREEQSNGTYRVVSVLPIGHQDWLSGKQFKCKVNNKALPSPIEEIISKTPGQAHQPNVYVLPPSRDEMSKNTVTLTCLVKDFFPPEIDVEWQSNGQQEPESKYRMTPPQLDEDGSYFLYSKLSVDKSRWQRGDTFICAVMHEALHNHYTQISLSHSPGK
light: B1 light
notes: See note of m19; also called caRA2-C

binding result [4]: binds
binding result [5]: binds
binding result [6]: binds
binding result [7]: binds
B4: caninised RF2, HCB isotype (antibody)
heavy: B1 heavy with V24I, N31S, T56S, T57I, L80I, Y105F
light: B1 light with S28N, L38V, G86E, L97S
notes: also called caRF2-B

binding result [8]: binds
binding result [9]: binds
binding result [10]: binds
binding result [11]: binds
B5: recombinant mouse RA2 (IgG2a/kappa) (antibody)
heavy: QVQLKQSGPGLVPPSQSLSITCTVSGFSLTNYGVHWVRQSPGKGLEWLGVIWSGGTTDYNAAFISRLSISKDNSKSQVFFKMNSLQADDTAIYYCARGPRKFYYYGMDYWGQGTSVTVSSAKTTAPSVYPLAPVCGDTTGSSVTLGCLVKGYFPEPVTLTWNSGSLSSGVHTFPAVLQSDLYTLSSSVTVTSSTWPSQSITCNVAHPASSTKVDKKIEPRGPTIKPCPPCKCPAPNLLGGPSVFIFPPKIKDVLMISLSPIVTCVVVDVSEDDPDVQISWFVNNVEVHTAQTQTHREDYNSTLRVVSALPIQHQDWMSGKEFKCKVNNKDLPAPIERTISKPKGSVRAPQVYVLPPPEEEMTKKQVTLTCMVTDFMPEDIYVEWTNNGKTELNYKNTEPVLDSDGSYFMYSKLRVEKKNWVERNSYSCSVVHEGLHNHHTTKSFSRTPGK
light: DVLMTQTPLSLPVSLGDQASISCRSSQSIVHSNGNTYLEWYLQKPGQSPKLLIYKVSNRFSGVPDRFSGSGSGTDFTLKISRVEAGDLGVYYCFQGLHVPLTFGAGTRLELKRADAAPTVSIFPPSSEQLTSGGASVVCFLNNFYPKDINVKWKIDGSERQNGVLNSWTDQDSKDSTYSMSSTLTLTKDEYERHNSYTCEATHKTSTSPIVKSFNRNEC
notes: also called muRA2

binding result [8]: binds
binding result [9]: binds
binding result [10]: binds
binding result [11]: binds
B6: recombinant mouse RF2 (IgG2a/kappa) (antibody)
heavy: B5 heavy with V24I, N31S, K43W, T56S, T57I, F80I, Y105F
light: B5 light with L3V, S28N, L38V, G86E, L97S, R108K
notes: also called muRF2; mouse IgG2a variant of RF2

binding result [1]: binds
binding result [2]: binds
binding result [3]: binds
binding result [4]: binds
B7: chimeric mouse-canine RF2, HCB isotype (antibody)
heavy: B2 heavy with V24I, N31S, K43W, T56S, T57I, F80I, Y105F
light: DVVMTQTPLSLPVSLGDQASISCRSSQNIVHSNGNTYVEWYLQKPGQSPKLLIYKVSNRFSGVPDRFSGSGSGTDFTLKISRVEAEDLGVYYCFQGSHVPLTFGAGTKLELKRNDAQPAVYLFQPSPDQLHTGSASVVCLLNSFYPKDINVKWKVDGVIQDTGIQESVTEQDKDSTYSLSSTLTMSSTEYLSHELYSCEITHKSLPSTLIKSFQRSECQRVD
notes: also called chiRF2-B; chimeric RF2

binding result [12]: binds
binding result [13]: binds
binding result [14]: binds
binding result [15]: binds
B8: RA2 murine monoclonal antibody (hybridoma) (antibody, V domains shown)
VH: QVQLKQSGPGLVPPSQSLSITCTVSGFSLTNYGVHWVRQSPGKGLEWLGVIWSGGTTDYNAAFISRLSISKDNSKSQVFFKMNSLQADDTAIYYCARGPRKFYYYGMDYWGQGTSVTVSS
VL: DVLMTQTPLSLPVSLGDQASISCRSSQSIVHSNGNTYLEWYLQKPGQSPKLLIYKVSNRFSGVPDRFSGSGSGTDFTLKISRVEAGDLGVYYCFQGLHVPLTFGAGTRLELK
notes: Hybridoma supernatant; also called muRA2

binding result [12]: binds
binding result [13]: binds
binding result [14]: binds
binding result [15]: binds
B9: RF2 murine monoclonal antibody (hybridoma) (antibody, V domains shown)
VH: B8 VH with V24I, N31S, K43W, T56S, T57I, F80I, Y105F
VL: B8 VL with L3V, S28N, L38V, G86E, L97S, R108K
notes: Hybridoma supernatant; also called muRF2
